Measurements as given in patent US20230174652A1 (Regeneron, published 2023).

Tests used:
Assay in all cases: cell-based or functional assay
[1] = target: T1, human CD28 (human, UniProt P10747 19-220)
[2] = target: T1, human CD28; remark: listed apart in the source
[3] = target: T1, human CD28; remark: listed apart in the source
[4] = target: T1, human CD28; remark: listed apart in the source

B1: REGN5705 (antibody, V domains shown)
VH: QVQLQESGPGLVKPSETLSLTCTVSGGSISSYYWSWIRQPPGKGLEWIGYIYYSGITHYNPSLKSRVTISVDTSKIQFSLKLSSVTAADTAVYYCARWGVRRDYYYYGMDVWGQGTTVTVSS
VL: not shown
[1]
  EC50 [M], IL-2 release, primary human CD4+ T-cells + Raji/CD80 and CD86 negative, 2 nM REGN1945 (isotype control): 1.11e-10 M
  Max RFU, IL-2 release, primary human CD4+ T-cells + HEK293/hCD20, 2 nM REGN1945 (isotype control): 2290 RFU
  Max RFU, IL-2 release, primary human CD4+ T-cells + HEK293/hCD20/hCD22, 2 nM REGN1945 (isotype control): 2950 RFU
  Max RFU, IL-2 release, primary human CD4+ T-cells + Raji/CD80 and CD86 negative, 2 nM REGN1945 (isotype control): 49500 RFU
[2]
  EC50 [M], luciferase activity, reporter T-cells + HEK293/hCD20, 200 pM REGN2281 (αCD20 x αCD3): 2.63e-10 M
  EC50 [M], luciferase activity, reporter T-cells + HEK293/hCD20/hCD22, 200 pM REGN2281 (αCD20 x αCD3): 7.7e-11 M
  EC50 [M], luciferase activity, reporter T-cells + Raji/CD80 and CD86 negative, 200 pM REGN2281 (αCD20 x αCD3): 4.33e-10 M
  Max RLU, luciferase activity, reporter T-cells + HEK293/hCD20, 200 pM REGN2281 (αCD20 x αCD3): 409000 RLU
  Max RLU, luciferase activity, reporter T-cells + HEK293/hCD20/hCD22, 200 pM REGN2281 (αCD20 x αCD3): 171000 RLU
  Max RLU, luciferase activity, reporter T-cells + Raji/CD80 and CD86 negative, 200 pM REGN2281 (αCD20 x αCD3): 569000 RLU
[3]
  EC50 [M], IL-2 release, primary human CD4+ T-cells + HEK293/hCD20, 2 nM REGN2281 (αCD20 x αCD3): 2.23e-09 M
  EC50 [M], IL-2 release, primary human CD4+ T-cells + Raji/CD80 and CD86 negative, 2 nM REGN2281 (αCD20 x αCD3): 4.51e-11 M
  Max RFU, IL-2 release, primary human CD4+ T-cells + HEK293/hCD20, 2 nM REGN2281 (αCD20 x αCD3): 68900 RFU
  Max RFU, IL-2 release, primary human CD4+ T-cells + HEK293/hCD20/hCD22, 2 nM REGN2281 (αCD20 x αCD3): 57400 RFU
  Max RFU, IL-2 release, primary human CD4+ T-cells + Raji/CD80 and CD86 negative, 2 nM REGN2281 (αCD20 x αCD3): 249000 RFU
[4]
  EC50 [M], luciferase activity, reporter T-cells + HEK293/hCD20, 200 pM REGN1945 (no TCR stimulation): 6.23e-09 M
  EC50 [M], luciferase activity, reporter T-cells + HEK293/hCD20/hCD22, 200 pM REGN1945 (no TCR stimulation): 8.45e-09 M
  EC50 [M], luciferase activity, reporter T-cells + Raji/CD80 and CD86 negative, 200 pM REGN1945 (no TCR stimulation): 7.88e-09 M
  Max RLU, luciferase activity, reporter T-cells + HEK293/hCD20, 200 pM REGN1945 (no TCR stimulation): 25000 RLU
  Max RLU, luciferase activity, reporter T-cells + HEK293/hCD20/hCD22, 200 pM REGN1945 (no TCR stimulation): 25100 RLU
  Max RLU, luciferase activity, reporter T-cells + Raji/CD80 and CD86 negative, 200 pM REGN1945 (no TCR stimulation): 33200 RLU
